Experimental data: US20210161943A1, “PAK4 INHIBITORS AND METHODS OF USE” (THE REGENTS OF THE UNIVERSITY OF CALIFORNIA, priority 2018, published 2021)

Assays:
MC38 WT tumors = experiment: Tumor growth of MC38 WT colon adenocarcinoma tumors in C57BL/6 mice; assay type: in vivo; details: for tumor growth versus anti-PD-1 monotherapy: MC38 WT tumors, PAK4 inhibitor twice daily from days 4 to 7, P<0.05 days 7, 10 (day 14 only combination)
Protocol: All mouse studies were performed under UCLA Animal Research Committee protocol #2004-159-23. C57BL/6 mice were bred and kept under defined-flora pathogen-free conditions at the Association for Assessment and Accreditation of Laboratory Animal Care approved animal facility of the Division of Experimental Radiation Oncology, UCLA. To study the in vivo effect of PD-1 blockade in anti-tumor response and immune cell infiltration, we subcutaneously (s.c.) injected 0.3×10^6 B16 PAK4 KO melanoma cells or MC38 PAK4 KO cells into the flanks of C57BL/6 syngeneic mice. 96 hours after tumor injection mice were randomly assigned into the different groups. Anti PD-1 (Cat. No. BE0146, clone RMP1-14, BioXCell, West Lebanon, N.H.) treatment was injected intraperitoneally three times per week at 200 μg per dose. For CD8 depletion studies, we administered anti-CD8 (Cat. No. BE0117, clone YST 169.4, BioXCell) one day before anti-PD1 treatment and then it was co-administered with anti-PD1 for a total of four doses. Splenocytes from control and CD8 depleted mice were taken to validate CD8 depletion efficacy (FIGS. 14-15). To study the combination effects of PAK4 inhibition (KPT-9274) and anti-PD-1 (Cat. No. BE0146, clone RMP1-14, BioXCell) in immune cell infiltration and anti-tumor response, 0.5×10^6 B16 WT or MC38 WT cells were injected s.c. into the flanks of C57BL/6 mice. 96 hours after tumor injection mice were randomly assigned into the different groups. PAK4 inhibitor was administered twice a day by oral gavage at 150 mg/kg while anti-PD-1 treatment was administered as described above. Tumor progression was monitored three times per week by measuring two perpendicular dimensions with a calliper.

[1] = test system: Wnt/β-catenin-mediated transcription in B16 WT CRISPR control cells; experiment: Topflash/Fopflash WNT activity luciferase assay, B16 WT CRISPR control cells; assay type: cell-based, murine; details: Wnt-3a 200 ng/mL, 8 hours
Protocol: (§1) For Topflash WNT activity assay cells were plated in 24 well plates and were co-transfected with pSV-β-galactosidase control vector (PR-E1081, Promega, Madison, Wis.) along with either pTopflash (Addgene, Cat. No. 12456) or pFopflash (Addgene, Cat. No. 12457). 24 hours after transfection, cells were treated with Wnt-3a (R&D Systems, Minneapolins, Minn.) at 200 ng/mL. After 8 hours, cells were harvested using Reporter Lysis Buffer (Promega, Cat. No. PR-E4030) and luciferase activity was measured using Bright-Glo Luciferase Assay System (Promega, Cat. No. PR-E2610) and Beta-Glo Assay System (Promega, Cat. No. PR-E4720). Luciferase activity was normalized to its corresponding Beta-Glo activity to account for transfection efficiency.

[2] = test system: Wnt/β-catenin-mediated transcription in PAK4 KO cells; experiment: Topflash/Fopflash WNT activity luciferase assay, B16 PAK4 KO cells; assay type: cell-based, murine; details: Wnt-3a 200 ng/mL, 8 hours
Protocol: as §1

| Molecule | tumor growth versus anti-PD-1 monotherapy (MC38 WT tumors; listed as PAK4i) | tumor growth versus anti-PD-1 monotherapy (MC38 WT tumors; listed as PAK4 inhibitor) | PAK4 inhibitor associated toxicity (MC38 WT tumors; mice bearing MC38 WT tumors, PAK4 inhibitor 150 mg/kg twice daily oral gavage, days 4 to 7) | Topflash luciferase activity ([1]; B16 WT CRISPR control cells) | Fopflash luciferase activity (mutant TCF-binding sites) ([1]; B16 WT cells) | induction of Topflash luciferase activity ([2]; PAK4 KO cells versus B16 WT control) | Fopflash luciferase activity (mutant TCF-binding sites) ([2]; PAK4 KO cells) |
| --- | --- | --- | --- | --- | --- | --- | --- |
| Nc1ccc(/C=C/C(=O)NCc2cc3cc(-c4ccc(C(=O)N5CCC(F)(F)CC5)cc4)cc(-c4ccc(F)cc4)c3o2)cn1 [KPT-9274] | significant decreased tumor growth compared to anti-PD-1 alone | decreased tumor growth compared to the anti-PD-1 monotherapy group | discontinued due to PAK4i associated toxicity |  |  |  |  |
| Wnt-3a: Wnt-3a (R&D Systems), used at 200 ng/mL (protein, UniProt P56704 19-352, looked up) Protein Wnt-3a: SYPIWWSLAVGPQYSSLGSQPILCASIPGLVPKQLRFCRNYVEIMPSVAEGIKIGIQECQHQFRGRRWNCTTVHDSLAIFGPVLDKATRESAFVHAIASAGVAFAVTRSCAEGTAAICGCSSRHQGSPGKGWKWGGCSEDIEFGGMVSREFADARENRPDARSAMNRHNNEAGRQAIASHMHLKCKCHGLSGSCEVKTCWWSQPDFRAIGDFLKDKYDSASEMVVEKHRESRGWVETLRPRYTYFKVPTERDLVYYEASPNFCEPNPETGSFGTRDRTCNVSSHGIDGCDLLCCGRGHNARAERRREKCRCVFHWCCYVSCQECTRVYDVHTCK |  |  |  | significantly induced | did not induce | significantly reduced | did not induce |
